Data set [1] has as its system CXCR3 expression on CD4+ T cells. Description: CXCR3 expression on CD4+ T cells of activated PBMCs (flow cytometry). The format is cell-based, human. Particulars: 3 individual donors. How it is done:
Materials and methods: PBMCs from healthy adult donors were isolated from whole blood using Ficoll-Paque density gradient centrifugation. PBMCs were cultured in a humidified 37° C. incubator for 24 hours in RPMI-1640 culture medium supplemented with 5% human serum, and standard antibiotics, 2-ME and HEPES. PBMCs were then seeded at 1×10^6 cells/well with 1 mL fresh culture medium/well in a 24-well plate and stimulated by mixing cells with human T cell TransAct (1:200). Antibodies indicated in the Results were then added and mixed well. After 2 days of culture, PBMCs were collected, washed with PBS three times, re-suspended in culture medium and re-cultured with indicated antibodies for an additional 2 days.
PBMCs were treated as required (see above) and then harvested for flow cytometry antibody staining, using anti-human CD4, anti-human CD8, anti-human CD56 and anti-human CXCR3 antibodies for 30 minutes on ice in the dark. PBMCs were then washed twice with FACS buffer and the expression of CXCR3 determined by flow cytometry using an Attune NxT flow cytometry. Flow cytometry data analysis was performed using FlowJo software.
(In general: In flow cytometry, cells or beads pass a laser one at a time.)

The subject of data set [2] is melanocytes. Description: Melanocyte apoptosis, Annexin V / 7AAD flow cytometry. The data set is classed as cell-based, human. Particulars: 2A6Q 10 μg/mL. How it is done:
Materials and methods: Melanocyte cell apoptosis was detected with Annexin V (BD, 550474) and 7AAD (1 mg/mL, Sigma A9400-1 MG). The cells were detached and resuspended with […] binding buffer (BD, 556454) containing Annexin V and 7AAD for 15 min at room temperature in the dark. Before analysis, cells were added to a […] binding buffer and immediately analyzed a on a flow cytometer (Verse BD).

In data set [3] the test system is melanocytes. Nature of the data set: Lipid peroxidation in melanocytes (BODIPY 581/591 C11). The format is cell-based, human. Conditions: melanocytes. How it is done:
For lipid peroxidation examination, melanocyte cells were seeded in a 6-well plate and treated with IFN-γ the next day. Melanocytes were washed with PBS and incubated with Hanks balanced salt solution (HBSS, Gibco) containing 5 μM BODIPY 581/591 C11 (Invitrogen, D3861) and incubated for 15 minutes at 37° C. in a tissue culture incubator. The cells were resuspended with fresh HBSS and examined with flow cytometry; the data were analyzed with FlowJo.

Data set [4] in a line: 4-week repeated intravenous infusion GLP toxicology of EI-001. The data set is classed as in vivo. How it is done:
Materials and methods: A total of forty Cynomolgus monkeys (20 females and 20 males) were assigned into 4 groups with 5 animals/gender/group and given EI-001 (2A6Q) (10, 30 and 100 mg/kg) or vehicle (Formulation Buffer) in a volume of 10 mL/kg via 30-min intravenous infusion, once weekly for a total of 5 doses, followed by a 6-week recovery phase. All animals were scheduled to be necropsied at the end of main phase (on Day 30) and at the end of recovery phase (on Day 72). During the study, the following parameters were evaluated: clinical observations, ophthalmology, body weight, food consumption, body temperature (rectal temperature), clinical pathology (hematology, coagulation, plasma chemistry, lymphocyte immunophenotype and urinalysis), gross pathology, organ weight and histopathology. toxicokinetics, immunogenicity, local irritation assessment, cardiovascular (ECG, body surface temperature, blood pressure), respiratory and central nervous system safety pharmacology assessments were conducted concurrently. […] The immunogenicity samples were collected on pre-dose on Days 1, 15, 22, and Days 57, 71.

“Also recorded” adds a separate entry of the source.

B1: EI-001: human monoclonal anti-IFN-γ neutralizing antibody; VH SEQ ID NO: 165, VL SEQ ID NO: 113; N76Q removes VH glycosylation site (antibody, listed as Homo sapiens, V domains shown)
VH: EVQLVESGGGLVKPGDSLTVSCVASGFTFSNYFIHWVRQAPGKGLEWVATISGRTKYMFYSDSLRGRFTVSRDNAQNSVYLHMSSLRGEDTALYYCVRGYDHSDSNSAADLLHWGRGTLVTVSS
VL: NFMLTQPLSVSGYPGKTIVISCVRSSGSVASHYVQWFQQRPGSAPAMVIYEDSHRPSGIPDRFSGSVDASSNSASLTISGLKTEDEADYFCQSYYGNNQVLFGGGTKLTVL
modifications: Recombinant variant antibody sequence
notes: human monoclonal anti-IFN-γ neutralizing antibody; N76Q removes VH glycosylation site
Take B1: the “IC50 of EI-001 to inhibit CXCR3 expression on CD4+ T cells” value in data set [1] lay in the range of 0.279 to 1.313 µg/mL. Further, in the data set on melanocytes [2], the “reversal of IFN-γ induced early phase apoptosis” value is reported as “managed to reverse the apoptosis; also recorded: reverses”. In the data set with melanocytes [3], the “reversal of IFN-γ induced lipid peroxidation” value is given as “reverses”. Moreover, the “survival of treated animals” value in data set [4] (10, 30 and 100 mg/kg once weekly) is “survived to their scheduled necropsy”. Moreover, the “tolerability after repeated intravenous infusion for 4 weeks” value in data set [4] (10, 30 and 100 mg/kg once weekly, 5 doses) was “well-tolerated”. Further, the “mortality rates or susceptibility to infections among the treated monkeys” value in data set [4] (compared to prior NI-0501 toxicology studies) is “did not increase”. For the same molecule, in data set [4] (cynomolgus monkey, in vivo), the “drug adverse events in in vivo toxicology” value is listed as “does not cause any significant drug adverse events”, the “observable symptoms of infection” value is recorded as “did not induce” and the “only detected changes related to administration” value is “seen on a microscopic level”.

Values taken from patent publication US20250320288A1, “METHOD OF TREATING VITILIGO WITH INTERFERON-GAMMA ANTIBODY” (Elixiron Immunotherapeutics (Hong Kong), priority 2022, published 2025).
